Measurements published in paper PMC7793253, “CEP290 is essential for the initiation of ciliary transition zone assembly” (PLoS Biology, 2020).

T1: His-CEP290-N (aa 1–887) (Drosophila, UniProt Q9W0M1 1-887)
T1 construct: Drosophila centrosomal protein 290 (CEP290); Cloned into pET28a; also called CEP290 N-terminus; source: E. coli BL21 (DE3), purified (His resin)
T1 sequence (looked up): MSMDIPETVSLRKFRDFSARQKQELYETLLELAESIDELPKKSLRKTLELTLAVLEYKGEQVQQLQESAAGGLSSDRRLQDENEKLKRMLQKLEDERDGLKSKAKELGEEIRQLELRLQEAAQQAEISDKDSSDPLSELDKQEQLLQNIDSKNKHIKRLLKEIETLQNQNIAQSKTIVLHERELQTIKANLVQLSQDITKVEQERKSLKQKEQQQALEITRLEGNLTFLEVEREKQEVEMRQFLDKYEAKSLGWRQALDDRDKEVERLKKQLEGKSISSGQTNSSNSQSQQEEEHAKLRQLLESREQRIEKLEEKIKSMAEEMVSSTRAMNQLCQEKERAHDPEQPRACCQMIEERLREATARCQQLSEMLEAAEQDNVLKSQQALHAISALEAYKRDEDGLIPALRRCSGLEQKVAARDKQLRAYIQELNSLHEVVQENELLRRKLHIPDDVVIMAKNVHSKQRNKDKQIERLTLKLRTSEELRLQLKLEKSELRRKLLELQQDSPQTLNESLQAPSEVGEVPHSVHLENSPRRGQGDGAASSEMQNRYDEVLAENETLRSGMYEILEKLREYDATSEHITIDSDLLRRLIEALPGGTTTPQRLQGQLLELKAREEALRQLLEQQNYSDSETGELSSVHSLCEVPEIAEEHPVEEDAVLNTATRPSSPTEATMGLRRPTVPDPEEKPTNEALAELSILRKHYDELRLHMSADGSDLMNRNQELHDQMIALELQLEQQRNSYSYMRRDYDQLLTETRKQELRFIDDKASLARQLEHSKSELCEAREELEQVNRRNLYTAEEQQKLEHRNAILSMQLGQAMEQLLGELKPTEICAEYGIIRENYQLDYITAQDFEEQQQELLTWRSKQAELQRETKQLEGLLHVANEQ

B1: GST-DZIP1-N (aa 1–293) (domain or fragment, Drosophila, UniProt Q9VC70 1-293, looked up)
chain: MGFKGKYPQMVRETGFKLRQYRDGPLDWRLMGSYETERILREQNFELVDKALTHLSEAPLGTVLETHILDSGIAKYFVMSQYAIQYLMCCRTYLDECVTDLKEAHTTAQEEIATLRKSLSESNNEVVQLHKRITQIEAIREVVYPCHLCTKNFISNEALNVHIGRKHRVASPPSLTSATGKEKDRDKATDVHLINTIKMELEIKQLKERLNAAERNIKERSTGSKRVSPRQEQRHVGIQSNLAEPKEKDEDSGEARQSEASERKEQLTGLAERLSNFEEWQTQLKQSNEQFIQ
notes: Cloned into pGEX-4T-1; also called N-terminus of DZIP1; source: E. coli BL21 (DE3), purified (Glutathione Sepharose)
B2: GST-DZIP1-C (aa 294–737) (domain or fragment, Drosophila, UniProt Q9VC70 294-737, looked up)
chain: DINKRLEGLSHALEQSKQASASTPPLEDRVATPCLEDLERILTEKVAEIGKVSAHRLEEVVYHLEEGYKEKLGALERELKQLSVQKVQPEPVQTVPVASKIPKPVVRKEETNIDRIRKQVESEFLKQKHDDDTYSIEEAPRKGSEKPFPQLVTQVQVVEKEQPSAGSSDSNPTYTKSPREPAPNKQETKEATDVSDSLSQEETENEEERSLTEEEGTDVPTSGSEAAREDPTPKTIKPSGRIIKSPQKPLTRKDARKMVNRKLMSHGFDMKSKGISHNSLKRVNSELTEHRNKLKLQHPHFYATRNRIRKFVEKLCSAKFSERAEMLLKHKSPLKPMEVPGKGIPRSAISEKSEEDIASSQGEEQTDEQTDSSEQQTRSPSPQRLVSRDFKARLEEILVKPAATIRGASKSSLSSRPVPLPRKRVMFNTTEDGKSFNDSDDNLK
notes: Cloned into pGEX-4T-1; also called C-terminus of DZIP1; source: E. coli BL21 (DE3), purified (Glutathione Sepharose)

Assays:
Experiment in all cases: pull-down; GST pull-down: purified His-tagged proteins incubated with GST, GST-DZIP1-N or GST-DZIP1-C in 25 mM Tris-HCl pH 7.4, 150 mM NaCl, 0.5% Triton X-100, 1 mM dithiothreitol, 10% glycerol, overnight at 4°C; blot with anti-His antibodies
Settings in all cases: both partners purified
[1] = target: B1
[2] = target: T1, His-CEP290-N (aa 1–887)
[3] = target: B2

| binding result [1] | binding result [2] | binding result [3] | Binder |
| --- | --- | --- | --- |
| binds |  |  | CEP290 N (aa 401–650) (domain or fragment, Drosophila, UniProt Q9W0M1 401-650, looked up, Drosophila centrosomal protein 290 (CEP290); This construct is not described in the methods; probably His-tagged and made in E. coli like His-CEP290-N) GLIPALRRCSGLEQKVAARDKQLRAYIQELNSLHEVVQENELLRRKLHIPDDVVIMAKNVHSKQRNKDKQIERLTLKLRTSEELRLQLKLEKSELRRKLLELQQDSPQTLNESLQAPSEVGEVPHSVHLENSPRRGQGDGAASSEMQNRYDEVLAENETLRSGMYEILEKLREYDATSEHITIDSDLLRRLIEALPGGTTTPQRLQGQLLELKAREEALRQLLEQQNYSDSETGELSSVHSLCEVPEIAE |
|  | binds |  | B1 |
| binds |  | binds | CEP290 N (aa 651–887) (domain or fragment, Drosophila, UniProt Q9W0M1 651-887, looked up, Drosophila centrosomal protein 290 (CEP290); This construct is not described in the methods; probably His-tagged and made in E. coli like His-CEP290-N) EHPVEEDAVLNTATRPSSPTEATMGLRRPTVPDPEEKPTNEALAELSILRKHYDELRLHMSADGSDLMNRNQELHDQMIALELQLEQQRNSYSYMRRDYDQLLTETRKQELRFIDDKASLARQLEHSKSELCEAREELEQVNRRNLYTAEEQQKLEHRNAILSMQLGQAMEQLLGELKPTEICAEYGIIRENYQLDYITAQDFEEQQQELLTWRSKQAELQRETKQLEGLLHVANEQ |
|  | binds |  | B2 |
| binds |  |  | His-Rab8 (natural protein, Drosophila, UniProt O18338 1-207, looked up, Drosophila Rab8; Cloned into pET28a; source: E. coli BL21 (DE3), purified (His resin)) MAKTYDYLFKLLLIGDSGVGKTCILFRFSEDAFNTTFISTIGIDFKIRTIELDNKKIKLQIWDTAGQERFRTITTAYYRGAMGIMLVYDITQEKSFENIKNWIRNIEENASADVEKMLLGNKCELTDKRQVSKERGEQLAIEYGIKFMETSAKASINVEEAFLTLASDIKAKTEKRMEANNPPKGGHQLKPMDSRTKDSWLSRCSLL |
| binds |  |  | His-Rab8^T22N (natural protein, Drosophila, UniProt O18338 1-207, looked up, Drosophila Rab8 with T22N; Cloned into pET28a; also called Rab8^GDP-mimicking mutant; source: E. coli BL21 (DE3), purified (His resin)) MAKTYDYLFKLLLIGDSGVGKNCILFRFSEDAFNTTFISTIGIDFKIRTIELDNKKIKLQIWDTAGQERFRTITTAYYRGAMGIMLVYDITQEKSFENIKNWIRNIEENASADVEKMLLGNKCELTDKRQVSKERGEQLAIEYGIKFMETSAKASINVEEAFLTLASDIKAKTEKRMEANNPPKGGHQLKPMDSRTKDSWLSRCSLL |
